This note sets out measurements from US20260250418A1 (BIOCYTOGEN PHARMACEUTICALS BEIJING, published 2026).

The target in assay [1] is T1, human EGFR (hEGFR, ACRO Biosystems Inc., Cat #: EGR-H5222), recombinant His-tagged (human, UniProt P00533 25-645).
T1 construct: Bought protein; not shown: His tag
Nature of the assay: SPR, Ab captured on Protein A. As for the experimental part:
(§1) The cross binding activities of anti-HER3 antibodies to HER family proteins were determined by surface plasmon resonance (SPR) using Biacore (Biacore, INC, Piscataway N.J.) 8K biosensor equipped with pre-immobilized Protein A sensor chips.
(§2) Purified anti-HER3 antibodies were diluted to 2 μg/mL and then injected into the Biacore 8K biosensor at 10 μL/min for about 50 seconds to achieve a desired protein density (e.g., about 200 response units (RU)). […] The association phase lasted for 180 s and the dissociation phase lasted 400 s followed by a regeneration step with Glycine (pH 2.0, 30 μL/min for 30 seconds). For isotype control (ISO), an antibody targeting an irrelevant target protein was used.
For orientation: In SPR one partner is held on a chip, and binding of the other changes the refractive index at the surface.

The target in assay [2] is T2, human HER2 (hHER2, ACRO Biosystems Inc., Cat #: HE2-H5225), recombinant His-tagged (human, UniProt P04626 23-652).
T2 construct: Bought protein; not shown: His tag
Nature of the assay: SPR, Ab captured on Protein A. Here is the method:
as §1, §2

Assay [3] deals with T3, human HER4 (hHER4, ACRO Biosystems Inc., Cat #: ER4-H5221), recombinant His-tagged (human, UniProt Q15303 26-649).
T3 construct: Bought protein; not shown: His tag
T3 sequence (looked up): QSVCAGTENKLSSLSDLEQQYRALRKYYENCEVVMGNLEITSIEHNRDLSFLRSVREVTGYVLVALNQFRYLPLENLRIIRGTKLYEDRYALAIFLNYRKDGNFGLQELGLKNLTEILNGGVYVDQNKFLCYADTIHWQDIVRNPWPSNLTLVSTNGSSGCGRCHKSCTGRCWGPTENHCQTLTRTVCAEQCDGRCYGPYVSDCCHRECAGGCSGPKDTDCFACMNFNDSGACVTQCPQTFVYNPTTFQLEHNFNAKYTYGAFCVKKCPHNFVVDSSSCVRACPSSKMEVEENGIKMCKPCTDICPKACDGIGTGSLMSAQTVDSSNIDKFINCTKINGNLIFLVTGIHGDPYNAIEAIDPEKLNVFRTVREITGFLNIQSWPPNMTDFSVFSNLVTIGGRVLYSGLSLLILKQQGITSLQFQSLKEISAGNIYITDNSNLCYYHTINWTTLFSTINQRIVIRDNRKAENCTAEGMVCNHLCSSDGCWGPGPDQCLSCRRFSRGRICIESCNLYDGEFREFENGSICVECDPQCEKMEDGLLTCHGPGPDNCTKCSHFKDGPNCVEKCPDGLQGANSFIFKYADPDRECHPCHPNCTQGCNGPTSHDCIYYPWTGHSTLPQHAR
Nature of the assay: SPR, Ab captured on Protein A. Here is the method: as §1, §2

Assay [4] concerns the target T4, monkey (Macaca fascicularis) HER3 on CHO-fasHER3 cells (monkey (Macaca fascicularis), UniProt P21860 20-643 (human entry)).
T4 construct: CHO-S cells transfected with fasHER3
T4 chain: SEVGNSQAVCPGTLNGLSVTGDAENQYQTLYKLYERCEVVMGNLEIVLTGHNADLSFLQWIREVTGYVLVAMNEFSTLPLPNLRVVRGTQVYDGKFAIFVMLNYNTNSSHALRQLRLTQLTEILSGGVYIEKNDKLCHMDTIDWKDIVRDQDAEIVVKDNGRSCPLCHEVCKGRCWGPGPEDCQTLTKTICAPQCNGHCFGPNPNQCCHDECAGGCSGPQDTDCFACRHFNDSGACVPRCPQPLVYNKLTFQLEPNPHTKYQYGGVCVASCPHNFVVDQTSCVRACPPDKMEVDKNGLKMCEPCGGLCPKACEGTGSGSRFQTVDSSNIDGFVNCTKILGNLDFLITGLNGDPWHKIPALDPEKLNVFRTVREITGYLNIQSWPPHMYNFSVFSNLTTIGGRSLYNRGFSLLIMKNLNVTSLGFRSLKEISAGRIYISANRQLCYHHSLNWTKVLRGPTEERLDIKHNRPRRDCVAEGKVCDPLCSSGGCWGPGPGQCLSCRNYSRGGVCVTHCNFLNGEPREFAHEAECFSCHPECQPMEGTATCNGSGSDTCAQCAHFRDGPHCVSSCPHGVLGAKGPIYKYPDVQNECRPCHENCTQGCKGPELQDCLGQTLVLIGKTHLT
The assay can be described thus: flow cytometry, transfected CHO cells. As for the experimental part:
CHO-hHER3 cells, CHO-mHER3 cells, CHO-fasHER3 cells or CHO-dHER3 cells were transferred to a 96-well plate at a density of 5×10⁴ cells/well respectively. The anti-HER3 antibodies were added to the 96-well plate, and incubated at 4° C. for 30 min.
On the technique in general: A flow cytometer gives signals particle by particle.

B1: anti-HER3 antibody 1C5 (antibody, V domains shown)
VH: QVQLVESGGGVVQPGKSLRLSCAASGFTFSRSGMHWVRQAPGKGLEWVALISFDGSNKYYADSVKGRFTISRDNSKNTLNLQMNSLRAEDTAVYYCAKGGFGVVIYDAFDIWGHGTMVTVSS
VL: not shown
notes: common light chain
B1: the binding result in assay [1], in assay [2] and in assay [3] was “no binding (tested: 400 nM)” throughout. Besides, in assay [4], the “Percentage of Positive Cells” value worked out at 72.8%.

B2: anti-HER3 antibody 3G6 (antibody, V domains shown)
VH: QVQLVQSGPVLVKPTETLTLTCTVSGFSLSNIRMGVSWIRQPPGKALEWLAHIFSNDDKSYSTSLKSRLTISKDTSKSQVVLTMTNVDPVDTATYYCTRMRYSGGPFDYWGQGTLVTVSS
VL: not shown
notes: common light chain
With B2, the binding result in assay [1], in assay [2] and in assay [3] was “no binding (tested: 400 nM)” throughout. In addition, the “Percentage of Positive Cells” value in assay [4] stood at 65.6%.

B3: anti-HER3 antibody 1B2 (antibody, V domains shown)
VH: QVQLVQSGPVLVKPTETLTLTCTVSTFSLSNARMGVSWIRQPPGKALEWLAHIFSNDDKSYSPSLKSRLTISKDTSKTQVVLTMTNMDPVDTATYYCSRMRYSGGPFDYWGQGSLVTVSS
VL: not shown
notes: common light chain
With B3, the binding result in assay [1], in assay [2] and in assay [3] was “no binding (tested: 400 nM)” throughout. Further, the “Percentage of Positive Cells” value in assay [4] amounted to 69%.

B4: anti-HER3 antibody 3E1 (antibody, V domains shown)
VH: EVQLVQSGPVLAKPTETLTLTCTVSGFSLSNIRMGVSWIRQPPGKALEWLAHIFSNDDKSYSPSLKNRLTISKDTSKSQVVLTMTTMDPMDTATYYCTRMKYSGGPFDYWGQGTLVTVSS
VL: not shown
notes: common light chain
Take B4: the binding result in assay [1], in assay [2] and in assay [3] was “no binding (tested: 400 nM)” each time. Also, the “Percentage of Positive Cells” value in assay [4] came to 69.4%.
